# Measurements from publication PMC8629902, “Structure–function relationships explain CTCF zinc finger mutation phenotypes in cancer”.
# T1: CTCF WT (UniProt P49711 1-727)
# T1 sequence: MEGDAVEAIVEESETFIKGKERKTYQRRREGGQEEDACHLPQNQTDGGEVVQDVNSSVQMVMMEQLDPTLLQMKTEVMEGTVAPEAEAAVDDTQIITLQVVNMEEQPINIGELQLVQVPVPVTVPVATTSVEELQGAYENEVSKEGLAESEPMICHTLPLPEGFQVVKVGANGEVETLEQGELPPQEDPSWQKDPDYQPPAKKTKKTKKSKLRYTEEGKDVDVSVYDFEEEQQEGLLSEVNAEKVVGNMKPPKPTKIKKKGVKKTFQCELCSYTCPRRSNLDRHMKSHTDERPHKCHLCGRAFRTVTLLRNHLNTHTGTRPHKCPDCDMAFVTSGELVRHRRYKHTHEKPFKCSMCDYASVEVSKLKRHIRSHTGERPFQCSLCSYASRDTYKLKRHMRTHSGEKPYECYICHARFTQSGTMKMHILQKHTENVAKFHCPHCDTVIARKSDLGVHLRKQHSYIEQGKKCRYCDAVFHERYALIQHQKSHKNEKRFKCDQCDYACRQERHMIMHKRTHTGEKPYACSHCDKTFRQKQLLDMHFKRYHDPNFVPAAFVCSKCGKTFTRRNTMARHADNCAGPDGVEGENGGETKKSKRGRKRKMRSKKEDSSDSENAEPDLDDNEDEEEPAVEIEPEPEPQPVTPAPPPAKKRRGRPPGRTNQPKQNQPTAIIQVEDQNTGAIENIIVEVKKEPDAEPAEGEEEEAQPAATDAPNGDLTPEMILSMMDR
# Target: T1, CTCF WT
# Experiment: pull-down; TnT lysate protein with bead-bound DNA, 3 h at 4 C; beads washed before and after binding in PIB (250 mM NaCl, 50 mM Tris pH 8.0, 0.25% IGEPAL, EDTA-free protease inhibitor); anti-CTCF Western blot
# Settings: protein: ivt; tags: FLAG (pcDNA3.1-FLAG); label: 5' biotin on S3 strand; blunt
binder,measurement,value
core CTCF binding site probe (dsDNA) DNA 1: AGGACCAGCAGGGGGCGCA DNA 2: TGCGCCCCCTGCTGGTCCT,binding result,binds
